Test results from paper PMC11980842, “MprF from Pseudomonas aeruginosa is a promiscuous lipid scramblase with broad substrate specificity” (Science Advances, 2025).

What was measured:
[1] = target: T1, Multiple peptide resistance factor (MprF) from Pseudomonas aeruginosa, full length (Pseudomonas aeruginosa PAO1); experiment: cryo-EM structure; PaMprF in SaposinA-lipid nanoparticles (POPC:POPG 7:3 mol/mol), separated by SEC, mixed with a 1.2x molar excess of Sb29; details: both partners purified
T1 construct: MprF of Pseudomonas aeruginosa, gene cloned from PAO1 genomic DNA into p7XC3H; full length, monomer of 96 kDa; The monomeric SEC fraction was pooled for downstream experiments; also called PaMprF; WT PaMprF; source: E. coli C41, purified (Ni Sepharose, SEC); reconstituted into SaposinA-lipid nanoparticles for cryo-EM
T1 chain: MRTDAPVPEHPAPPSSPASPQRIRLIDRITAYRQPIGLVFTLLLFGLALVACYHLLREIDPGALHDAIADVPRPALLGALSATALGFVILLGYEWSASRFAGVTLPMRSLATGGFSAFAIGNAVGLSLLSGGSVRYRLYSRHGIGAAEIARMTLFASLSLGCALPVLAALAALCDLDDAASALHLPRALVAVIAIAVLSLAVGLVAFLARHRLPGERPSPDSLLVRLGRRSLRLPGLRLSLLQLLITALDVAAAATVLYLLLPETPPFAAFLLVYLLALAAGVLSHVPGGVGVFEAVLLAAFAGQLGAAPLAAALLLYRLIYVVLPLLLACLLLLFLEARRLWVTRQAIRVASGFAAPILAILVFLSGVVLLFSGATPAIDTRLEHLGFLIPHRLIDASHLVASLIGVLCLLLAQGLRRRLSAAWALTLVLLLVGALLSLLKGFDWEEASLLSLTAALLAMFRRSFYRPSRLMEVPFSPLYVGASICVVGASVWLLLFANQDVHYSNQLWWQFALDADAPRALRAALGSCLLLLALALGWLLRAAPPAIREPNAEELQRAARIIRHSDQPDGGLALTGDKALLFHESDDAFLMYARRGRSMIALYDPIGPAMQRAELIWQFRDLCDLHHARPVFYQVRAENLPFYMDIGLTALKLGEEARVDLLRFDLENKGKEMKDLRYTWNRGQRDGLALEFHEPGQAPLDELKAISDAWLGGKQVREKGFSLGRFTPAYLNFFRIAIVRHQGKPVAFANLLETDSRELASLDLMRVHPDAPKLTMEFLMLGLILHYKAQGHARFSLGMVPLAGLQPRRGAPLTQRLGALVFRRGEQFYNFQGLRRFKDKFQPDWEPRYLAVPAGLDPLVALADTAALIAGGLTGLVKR

[2] = target: T2, Truncated PaMprF construct of residues 1 to 545 (TM region) (Pseudomonas aeruginosa PAO1); experiment: pull-down; truncated PaMprF construct of residues 1 to 545 with sybodies; who was held is not told
T2 construct: MprF of Pseudomonas aeruginosa (PAO1), residues 1 to 545, representing the transmembrane region; also called truncated form of PaMprF representing the TM region
T2 chain: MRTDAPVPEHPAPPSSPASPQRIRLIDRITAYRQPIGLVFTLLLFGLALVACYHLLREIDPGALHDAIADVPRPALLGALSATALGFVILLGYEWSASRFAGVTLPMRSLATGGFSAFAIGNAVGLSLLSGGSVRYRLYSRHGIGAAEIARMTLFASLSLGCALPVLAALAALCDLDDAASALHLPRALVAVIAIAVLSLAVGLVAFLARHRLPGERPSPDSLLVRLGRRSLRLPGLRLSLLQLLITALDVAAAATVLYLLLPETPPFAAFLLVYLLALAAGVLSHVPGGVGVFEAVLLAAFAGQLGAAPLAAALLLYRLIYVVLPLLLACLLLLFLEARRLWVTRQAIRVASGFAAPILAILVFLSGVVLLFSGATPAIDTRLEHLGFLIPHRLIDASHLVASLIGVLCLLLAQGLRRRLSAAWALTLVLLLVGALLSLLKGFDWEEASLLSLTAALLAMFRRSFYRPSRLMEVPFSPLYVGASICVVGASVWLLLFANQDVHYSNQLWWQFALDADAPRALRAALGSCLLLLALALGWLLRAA

B1: Sybody 29 (synthetic nanobody against PaMprF) (VHH)
VHH: GVQLVESGGGLVQAGGSLRLSCAASGFPVSSAWMAWYRQAPGKEREWVAAIFSAGQKTRYADSVKGRFTISRDNAKNTVYLQMNSLKPEDTAVYYCNVKDTGHWWDIYDYWGQGTQVTVSA
notes: synthetic nanobody from the loop sybody sublibrary; the structure of its complex with PaMprF was deposited as PDB 9GOE; Selected by one round of ribosome display and two rounds of phage display against biotinylated full-length PaMprF; also called Sb29
Q: Which results are given for B1?
A: binding result [1]: binds; binding result [2]: binds
